Legend:
[1] = biological target: HP8/HEVIN, extracellular matrix protein (UniProt Q14515); experiment: binding of COS-7 expressed antibody to HP8; method and unit not given
[2] = biological target: mouse myosin IIb (myosin heavy chain IIb), 200 kDa skeletal muscle protein (mouse) (UniProt Q5SX39); experiment: cell-based or functional assay
UniProt Q5SX39, sequence (Q5SX39 whole entry): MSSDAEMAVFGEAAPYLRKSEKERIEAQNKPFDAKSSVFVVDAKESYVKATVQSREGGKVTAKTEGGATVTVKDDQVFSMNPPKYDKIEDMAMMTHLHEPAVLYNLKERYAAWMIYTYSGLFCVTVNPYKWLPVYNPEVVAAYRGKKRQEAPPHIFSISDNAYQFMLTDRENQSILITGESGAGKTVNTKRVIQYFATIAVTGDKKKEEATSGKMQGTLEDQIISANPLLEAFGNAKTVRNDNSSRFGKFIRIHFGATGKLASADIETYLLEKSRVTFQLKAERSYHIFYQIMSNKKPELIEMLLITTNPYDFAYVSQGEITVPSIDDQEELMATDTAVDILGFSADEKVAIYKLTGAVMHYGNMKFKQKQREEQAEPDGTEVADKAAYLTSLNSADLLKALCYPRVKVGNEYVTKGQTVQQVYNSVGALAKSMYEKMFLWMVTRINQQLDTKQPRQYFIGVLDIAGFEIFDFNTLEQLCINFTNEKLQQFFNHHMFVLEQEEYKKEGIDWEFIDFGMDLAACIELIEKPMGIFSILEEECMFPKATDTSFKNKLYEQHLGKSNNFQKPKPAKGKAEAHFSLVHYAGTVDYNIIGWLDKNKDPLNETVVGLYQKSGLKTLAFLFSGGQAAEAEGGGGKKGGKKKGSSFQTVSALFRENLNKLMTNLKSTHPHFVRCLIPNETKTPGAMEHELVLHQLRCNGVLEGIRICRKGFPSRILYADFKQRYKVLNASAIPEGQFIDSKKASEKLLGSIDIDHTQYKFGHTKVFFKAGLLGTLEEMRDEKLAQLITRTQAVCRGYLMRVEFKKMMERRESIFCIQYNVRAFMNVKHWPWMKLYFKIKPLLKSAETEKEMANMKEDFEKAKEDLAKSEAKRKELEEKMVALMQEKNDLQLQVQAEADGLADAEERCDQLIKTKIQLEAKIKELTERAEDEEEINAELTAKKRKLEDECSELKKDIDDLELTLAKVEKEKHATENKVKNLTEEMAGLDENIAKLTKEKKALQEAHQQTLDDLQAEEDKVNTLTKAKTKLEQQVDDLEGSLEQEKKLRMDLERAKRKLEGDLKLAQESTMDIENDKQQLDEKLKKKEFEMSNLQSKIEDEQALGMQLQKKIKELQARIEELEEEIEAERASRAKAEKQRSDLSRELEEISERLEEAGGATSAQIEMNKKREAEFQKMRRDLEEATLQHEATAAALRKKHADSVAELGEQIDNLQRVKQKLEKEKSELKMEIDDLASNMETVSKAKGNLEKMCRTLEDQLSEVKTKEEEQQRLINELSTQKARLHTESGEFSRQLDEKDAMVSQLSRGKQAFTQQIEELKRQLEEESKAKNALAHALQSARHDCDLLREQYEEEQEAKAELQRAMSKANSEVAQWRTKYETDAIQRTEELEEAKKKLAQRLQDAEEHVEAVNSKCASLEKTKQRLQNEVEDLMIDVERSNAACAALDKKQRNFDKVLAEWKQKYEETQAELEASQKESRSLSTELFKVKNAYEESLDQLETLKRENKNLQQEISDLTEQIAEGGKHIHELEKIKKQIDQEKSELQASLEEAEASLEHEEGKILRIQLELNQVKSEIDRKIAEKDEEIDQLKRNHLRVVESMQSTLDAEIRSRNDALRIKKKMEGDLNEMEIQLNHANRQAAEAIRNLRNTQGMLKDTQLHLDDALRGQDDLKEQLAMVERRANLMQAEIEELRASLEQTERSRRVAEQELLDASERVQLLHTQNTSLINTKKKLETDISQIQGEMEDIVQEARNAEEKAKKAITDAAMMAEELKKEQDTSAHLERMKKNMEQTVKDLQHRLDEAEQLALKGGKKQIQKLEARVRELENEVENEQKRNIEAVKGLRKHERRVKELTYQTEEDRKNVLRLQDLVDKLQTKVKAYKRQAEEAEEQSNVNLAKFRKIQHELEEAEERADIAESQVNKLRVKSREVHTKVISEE

UniProt Q14515, sequence (Q14515 17-664 limits assumed): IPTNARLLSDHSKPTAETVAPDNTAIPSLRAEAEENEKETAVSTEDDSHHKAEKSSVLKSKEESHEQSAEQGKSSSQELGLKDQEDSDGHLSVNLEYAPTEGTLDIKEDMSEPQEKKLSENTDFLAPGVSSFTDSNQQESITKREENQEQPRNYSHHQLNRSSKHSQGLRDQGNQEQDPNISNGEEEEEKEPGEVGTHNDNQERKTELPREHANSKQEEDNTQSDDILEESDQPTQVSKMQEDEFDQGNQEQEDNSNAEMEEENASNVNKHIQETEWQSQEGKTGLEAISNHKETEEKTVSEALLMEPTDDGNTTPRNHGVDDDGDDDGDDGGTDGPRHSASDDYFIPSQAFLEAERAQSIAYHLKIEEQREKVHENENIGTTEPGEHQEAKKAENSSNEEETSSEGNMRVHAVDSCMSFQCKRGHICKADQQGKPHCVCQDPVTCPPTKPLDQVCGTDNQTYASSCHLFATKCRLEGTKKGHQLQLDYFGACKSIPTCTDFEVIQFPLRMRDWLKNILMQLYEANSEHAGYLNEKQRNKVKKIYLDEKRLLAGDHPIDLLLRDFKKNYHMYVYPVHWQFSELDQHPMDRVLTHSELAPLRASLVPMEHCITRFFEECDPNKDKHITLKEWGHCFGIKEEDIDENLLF

Row | Antibody Specificity, HP8 [1] | localization of intravenously injected scFv fragments in tissues of FVB mice (histology with anti-his6 antibody) [2] [%] | Substance
1 | 2.02 | – | recombinant mAb 3E10, native heavy chain with native (anti-dsDNA kIII) light chain, expressed in COS-7 cells (antibody)
2 | 2.76 | – | mAb 3E10 VH31 mutant heavy chain with Vk residue 32 mutant light chain (Y to F, L CDR1) (antibody)
3 | – | 20 | mAb 3E10 scFv containing 3E10 VH and VkIII (Vk placed N-terminal of VH)
4 | 0.2 | – | mAb 3E10 VH31 mutant heavy chain with Vk residue 94 mutant light chain (F to D, L CDR3) (antibody)
5 | 0.26 | – | mAb 3E10 VH31 mutant heavy chain with Vk residue 27C mutant light chain (S to D, L CDR1) (antibody)
6 | 1.3 | – | mAb 3E10 VH31 mutant heavy chain (D to N at residue 31, H CDR1) with native light chain (antibody)
7 | 1.21 | – | mAb 3E10 VH31 mutant heavy chain with Vk residue 92 mutant light chain (R to N, L CDR3) (antibody)
